Measured values: paper PMC6323126 (2019)

B1: SIKE1 (recombinant, limits not stated) [human] / SLMAP (recombinant, limits not stated for the experiment) [human] (parent complex)
chain 1: MSCTIEKILTDAKTLLERLREHDAAAESLVDQSAALHRRVAAMREAGTALPDQYQEDASDMKDMSKYKPHILLSQENTQIRDLQQENRELWISLEEHQDALELIMSKYRKQMLQLMVAKKAVDAEPVLKAHQSHSAEIESQIDRICEMGEVMRKAVQVDDDQFCKIQEKLAQLELENKELRELLSISSESLQARKENSMDTASQAIK
chain 2: YSQELFQLSQYLQEALHREQMLEQKLATLQRLLAITQEASDTSWQALIDEDRLLSRLEVMGNQLQACSKNQTEDSLRKELIALQEDKHNYETTAKESLRRVLQEKIEVVRKLSEVERSLSNTEDECTHLKEMNERTQEELRELANKYNGAVNEIKDLSDKLKVAEGKQEEIQQKGQAEKKELQHKIDEMEEKEQELQAKIEALQADNDFTNERLTALQVRLEHLQEKTLKECSSLEHLLSKSGGDCTFIHQFIECQKKLIVEGHLTKAVEETKLSKENQTRAKESDFSDTLSPSKEKSSDDTTDAQMDEQDLNEPLAKVSLLKDDLQGAQSEIEAKQEIQHLRKELIEAQELARTSKQKCFELQALLEEERKAYRNQVEESTKQIQVLQAQLQRLHIDTENLREEKDSEITSTRDELLSARDEILLLHQAAAKVASERDTDIASLQEELKKVRAELERWRKAASEYEKEITSLQNSFQLRCQQCEDQQREEATRLQGELEKLRKEWNALETECHSLKRENVLLSSELQRQEKELHNSQKQSLELTSDLSILQMSRKELENQVGSLKEQHLRDSADLKTLLSKAENQAKDVQKEYEKTQTVLSELKLKFEMTEQEKQSITDELKQCKNNLKLLREKGNNKP

Variants of: B1
Experiment: BLI; read at the end of association (about 360 s); parent: 0.13; read off a plot

Row | Variant | response [nm]
1 | chain 1 MSCTIEKILTDAKTDLERLREHDAAAESLVDQSAALHRRVAAMREAGTALPDQYQEDASDMKDMSKYKPHILLSQENTQIRDLQQENRELWISLEEHQDALELIMSKYRKQMLQLMVAKKAVDAEPVLKAHQSHSAEIESQIDRICEMGEVMRKAVQVDDDQFCKIQEKLAQLELENKELRELLSISSESLQARKENSMDTASQAIK [chain 1 L15D] | ~0.045
2 | chain 1 MSCTIEKILTDAKTLLERLREHDAAAESLVDQSAADHRRVAAMREAGTALPDQYQEDASDMKDMSKYKPHILLSQENTQIRDLQQENRELWISLEEHQDALELIMSKYRKQMLQLMVAKKAVDAEPVLKAHQSHSAEIESQIDRICEMGEVMRKAVQVDDDQFCKIQEKLAQLELENKELRELLSISSESLQARKENSMDTASQAIK [chain 1 L36D] | ~0

Now from value to variant:

Row | response [nm] | Variant
3 | ~0.045 | chain 1 MSCTIEKILTDAKTLLERDREHDAAAESLVDQSAALHRRVAAMREAGTALPDQYQEDASDMKDMSKYKPHILLSQENTQIRDLQQENRELWISLEEHQDALELIMSKYRKQMLQLMVAKKAVDAEPVLKAHQSHSAEIESQIDRICEMGEVMRKAVQVDDDQFCKIQEKLAQLELENKELRELLSISSESLQARKENSMDTASQAIK [chain 1 L19D]
4 | ~0.02 | chain 1 MSCTIEKILTDAKTDLERDREHDAAAESLVDQSAADHRRVAAEREAGTALPDQYQEDASDMKDMSKYKPHILLSQENTQIRDLQQENRELWISLEEHQDALELIMSKYRKQMLQLMVAKKAVDAEPVLKAHQSHSAEIESQIDRICEMGEVMRKAVQVDDDQFCKIQEKLAQLELENKELRELLSISSESLQARKENSMDTASQAIK [chain 1 L15D, chain 1 L19D, chain 1 L36D, chain 1 M43E]
5 | ~0.05 | chain 1 MSCTIEKILTDAKTLLERLREHDAAAESLVDQSAALHRRVAAEREAGTALPDQYQEDASDMKDMSKYKPHILLSQENTQIRDLQQENRELWISLEEHQDALELIMSKYRKQMLQLMVAKKAVDAEPVLKAHQSHSAEIESQIDRICEMGEVMRKAVQVDDDQFCKIQEKLAQLELENKELRELLSISSESLQARKENSMDTASQAIK [chain 1 M43E]
